From patent US20210322564A1 (ADC THERAPEUTICS, published 2021) come the findings set out here.

In the experiment the target is T1, CD19 (human, UniProt P15391 20-556).
T1 sequence (looked up): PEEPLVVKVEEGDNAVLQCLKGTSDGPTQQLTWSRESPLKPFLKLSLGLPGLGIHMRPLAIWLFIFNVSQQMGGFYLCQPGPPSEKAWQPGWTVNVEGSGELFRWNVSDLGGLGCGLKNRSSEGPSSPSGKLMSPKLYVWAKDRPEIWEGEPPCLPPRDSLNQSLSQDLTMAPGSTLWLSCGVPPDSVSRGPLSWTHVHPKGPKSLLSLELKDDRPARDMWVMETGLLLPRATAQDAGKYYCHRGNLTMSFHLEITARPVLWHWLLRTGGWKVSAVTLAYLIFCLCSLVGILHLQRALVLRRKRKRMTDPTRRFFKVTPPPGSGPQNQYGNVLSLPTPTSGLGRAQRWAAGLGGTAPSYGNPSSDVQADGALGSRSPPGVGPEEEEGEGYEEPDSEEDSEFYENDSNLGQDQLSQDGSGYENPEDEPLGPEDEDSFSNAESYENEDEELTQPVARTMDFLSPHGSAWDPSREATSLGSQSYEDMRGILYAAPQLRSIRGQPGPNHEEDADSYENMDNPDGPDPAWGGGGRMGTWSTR
Briefly: cell-based or functional assay.

B1: ADCx19 (antibody, V domains shown)
VH: QVQLVQPGAEVVKPGASVKLSCKTSGYTFTSNWMHWVKQAPGQGLEWIGEIDPSDSYTNYNQNFQGKAKLTVDKSTSTAYMEVSSLRSDDTAVYYCARGSNPYYYAMDYWGQGTSVTVS
VL: EIVLTQSPAIMSASPGERVTMTCSASSGVNYMHWYQQKPGTSPRRWIYDTSKLASGVPARFSGSGSGTSYSLTISSMEPEDAATYYCHQRGSYTFGGGTKLEIK
modifications: pyrrolobenzodiazepine (PBD) dimer warhead attached via a cleavable linker, DAR 2+/-0.3; attachment residues not stated
Regarding B1, the “IC50, MTT proliferation assay, 96 h exposure, median over 48 B-cell lymphoma cell lines” value was found to be 4 pM.
